The supplement of paper PMC7877785
± gives the uncertainty stated by the source.

Assay: self-splicing fitness, log relative to wild type (ln ratio); higher = more splicing; Tetrahymena group I intron in knt gene, E. coli kanamycin selection, DiMSum; sequences stand for … in CUCUCU…GGAGGGAAAAGUUAUCAGGCAUGCACCUGGUAGCUAGUCUUUAAACCAAUAGAUUGCAUCGGUUUAAAAGGCAAGACCGUCAAAUUGCGGGAAAGGGGUCAACAGCCGUUCAGUACCAAGUCUCAGGGGAAACUUUGAGAUGGCCUUGCAAAGGGUAUGGUAAUAAGCUGACGGACAUGGUCCUAACCACGCAGCCAAGUCCUAAGUCAACAGAUCUUCUGUUGAUAUGGAUGCAGUUCACAGACUAAAUGUCGGUCGGGGAAGAUGUAUUCUUCUCAUAAGAUAUAGUCGGACCUCUCCUUAAUGGGAGCUAGCGGAUGAAGUGAUGCAACACUGGAGCCGCUGGGAACUAAUUUGUAUGCGAAAGUAUAUUGAUUAGUUUUGGAGUACUCGUGGUCG
How it was run: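 A randomised library covering all eight P1ex-region intron nucleotides was built with the intron in the knt kanamycin-resistance gene on pET-22b(+) and held in E. coli BL21(DE3). Cells were grown overnight at 37°C or 30°C on LB agar, with or without 25 μg/mL kanamycin, plus 100 μg/mL carbenicillin, 50 μM IPTG and 0.2% rhamnose, and pooled colonies were amplicon-sequenced on an Illumina HiSeq 2500. DiMSum fitness is the error-weighted combination of wild-type-normalised replicate fold changes, kanamycin versus none.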

Sequence	self-splicing fitness (ln) (30 °C)	self-splicing fitness (ln) (37 °C)
CAUAAGCAAUAUUACGCACA	-2.05 ± 0.12	-0.312 ± 0.11
UCCGAGCAAUAUUACGCCUA	-2.13 ± 0.2	-2.6 ± 0.36
CCCAAGCAAUAUUACGAUCU	-2.73 ± 0.14	-3.53 ± 0.27
UUAGAGCAAUAUUACGGGAG	-2.32 ± 0.15	-1.32 ± 0.18
GACAAGCAAUAUUACGCAAU	-3.08 ± 0.15	-1.58 ± 0.12
CGAAAGCAAUAUUACGGUCC	-0.283 ± 0.087	-0.129 ± 0.13
ACCAAGCAAUAUUACGGCAC	-0.797 ± 0.091	-0.913 ± 0.11
CUGAAGCAAUAUUACGGUCC	-3.78 ± 0.34	-2.38 ± 0.46
UCCUAGCAAUAUUACGUCCU	-3.56 ± 0.15	-1.92 ± 0.14
AAGGAGCAAUAUUACGCGGA	-2.07 ± 0.13	-2.71 ± 0.2
GUAAAGCAAUAUUACGCGAC	-0.509 ± 0.26	1.71 ± 0.45
GAGGAGCAAUAUUACGUCAG	-3.5 ± 0.37	–
AUAGAGCAAUAUUACGUAUU	-2.46 ± 0.16	-1.1 ± 0.17
UCAUAGCAAUAUUACGACUA	-2.82 ± 0.29	-1.78 ± 0.24
CACGAGCAAUAUUACGCGUA	-2.23 ± 0.12	-1.28 ± 0.15
CCUCAGCAAUAUUACGGAGA	-2.8 ± 0.18	-1.4 ± 0.15
GCGAAGCAAUAUUACGUACG	-2.46 ± 0.37	-2.24 ± 0.34
ACCGAGCAAUAUUACGGAUG	-2.12 ± 0.12	-1.85 ± 0.098
AACCAGCAAUAUUACGUGCA	-0.671 ± 0.055	-0.0717 ± 0.072
CUUUAGCAAUAUUACGUCCU	–	-1.9 ± 0.31
AAGAAGCAAUAUUACGGAUA	-1.67 ± 0.1	-1.38 ± 0.12
CGUGAGCAAUAUUACGGACA	-1.29 ± 0.16	-0.944 ± 0.19
GAAAAGCAAUAUUACGUCCC	-0.229 ± 0.17	0.0916 ± 0.2
AGCUAGCAAUAUUACGAGGC	-3.21 ± 0.24	-1.96 ± 0.21
UAGCAGCAAUAUUACGAAGA	-1.64 ± 0.14	-1.29 ± 0.13

Sequence	self-splicing fitness (ln) (30 °C)	self-splicing fitness (ln) (37 °C)
ACAAAGCAAUAUUACGGCUG	-0.524 ± 0.069	-0.277 ± 0.088
AGCUAGCAAUAUUACGAGGA	-3.9 ± 0.35	-2.42 ± 0.42
CAAGAGCAAUAUUACGAAAG	-1.52 ± 0.12	-1.64 ± 0.16
GGCUAGCAAUAUUACGAACG	-0.636 ± 0.066	-0.168 ± 0.094
AGGCAGCAAUAUUACGUUCU	-1.86 ± 0.08	-0.817 ± 0.09
CAAGAGCAAUAUUACGUCCC	–	-1.59 ± 0.28
GUCGAGCAAUAUUACGGUCA	-1.37 ± 0.26	-0.499 ± 0.24
ACCCAGCAAUAUUACGGUGG	-3.57 ± 0.15	-2.76 ± 0.18
AAAGAGCAAUAUUACGUUAG	-3.49 ± 0.15	-3.11 ± 0.25
AAGGAGCAAUAUUACGUGAU	-2.78 ± 0.18	-2.45 ± 0.3
AUACAGCAAUAUUACGCAGU	-2.88 ± 0.23	-2.74 ± 0.22
GUGUAGCAAUAUUACGCUCA	-0.291 ± 0.21	0.47 ± 0.33
CUUAAGCAAUAUUACGACGA	-3.58 ± 0.25	-2.61 ± 0.23
CUGCAGCAAUAUUACGCUCG	-2.3 ± 0.16	-0.671 ± 0.16
UAAGAGCAAUAUUACGAAAU	–	-1.61 ± 0.32
AAUGAGCAAUAUUACGGUAU	–	-1.81 ± 0.19
UCCCAGCAAUAUUACGGACC	-3.42 ± 0.27	0.0123 ± 0.17
UGAGAGCAAUAUUACGAUGU	-3.27 ± 0.25	–
AUCAAGCAAUAUUACGGAUA	-2.42 ± 0.16	-1.83 ± 0.15
UCGCAGCAAUAUUACGUGUA	-1.19 ± 0.082	-0.901 ± 0.083
AUCAAGCAAUAUUACGCGGU	-4.07 ± 0.19	-2.03 ± 0.16
AGAUAGCAAUAUUACGCCGU	-0.974 ± 0.11	-0.953 ± 0.12
AUGGAGCAAUAUUACGGCCC	-1.13 ± 0.24	-1.43 ± 0.31
AUAUAGCAAUAUUACGGCCC	-0.72 ± 0.15	-0.205 ± 0.24
CUGCAGCAAUAUUACGAGCC	-2.9 ± 0.31	–

Sequence	self-splicing fitness (ln) (30 °C)	self-splicing fitness (ln) (37 °C)
CACUAGCAAUAUUACGGAUU	-4.22 ± 0.2	-2.28 ± 0.12
CUCCAGCAAUAUUACGCGAG	-2.19 ± 0.2	-2.94 ± 0.3
UGAGAGCAAUAUUACGCAAC	–	-1.88 ± 0.47
AAACAGCAAUAUUACGGUAC	-3.52 ± 0.2	-2.75 ± 0.26
UAAAAGCAAUAUUACGCUGU	-3.01 ± 0.23	-2.26 ± 0.2
AGUUAGCAAUAUUACGCAUU	-3.25 ± 0.25	-0.806 ± 0.17
AGCUAGCAAUAUUACGGUAG	-3.91 ± 0.27	-3.18 ± 0.23
GUGAAGCAAUAUUACGGGAA	-2.11 ± 0.12	-0.793 ± 0.11
AACAAGCAAUAUUACGGGCA	-0.586 ± 0.058	-0.0288 ± 0.066
CCUGAGCAAUAUUACGCCGA	-3.1 ± 0.39	-3.2 ± 0.4
AAAAAGCAAUAUUACGUGGA	-2.42 ± 0.1	-1.86 ± 0.1
CUGUAGCAAUAUUACGGGGG	-4.4 ± 0.37	-2.68 ± 0.31
UUCGAGCAAUAUUACGCUUG	-3.26 ± 0.41	–
UGGAAGCAAUAUUACGAGAC	-3.31 ± 0.48	–
CGGGAGCAAUAUUACGUCAU	-3.09 ± 0.49	–
AUAGAGCAAUAUUACGCAUA	-0.926 ± 0.16	-0.513 ± 0.26
UCUGAGCAAUAUUACGGUGG	-1.29 ± 0.084	-0.277 ± 0.1
AUAAAGCAAUAUUACGAGCG	-0.041 ± 0.086	0.101 ± 0.09
CGAUAGCAAUAUUACGAAUG	-0.898 ± 0.082	0.443 ± 0.11
AUUAAGCAAUAUUACGUGAC	-3.17 ± 0.17	-1.75 ± 0.18
CACAAGCAAUAUUACGUACU	-3.09 ± 0.12	-0.878 ± 0.1
UAUAAGCAAUAUUACGUCUG	-0.517 ± 0.081	0.316 ± 0.098
AAAUAGCAAUAUUACGAGUG	-2.42 ± 0.12	-0.435 ± 0.1
UCUGAGCAAUAUUACGAAGA	-1.67 ± 0.21	-0.838 ± 0.27
CCGCAGCAAUAUUACGAGUC	-3.36 ± 0.26	-3.29 ± 0.28

Sequence	self-splicing fitness (ln) (30 °C)	self-splicing fitness (ln) (37 °C)
CCUCAGCAAUAUUACGACGG	-2.74 ± 0.18	-1.64 ± 0.27
UAUAAGCAAUAUUACGUUGA	-3.52 ± 0.22	-1.25 ± 0.12
ACUUAGCAAUAUUACGAGCG	-1.14 ± 0.096	0.122 ± 0.1
CAUGAGCAAUAUUACGUCCG	-0.682 ± 0.079	-0.331 ± 0.1
GCUUAGCAAUAUUACGUUAA	–	-2.84 ± 0.29
GAGCAGCAAUAUUACGUGUG	-3.28 ± 0.12	-0.789 ± 0.11
GUGGAGCAAUAUUACGAACG	-2.43 ± 0.43	-1.53 ± 0.41
UGCCAGCAAUAUUACGGGGA	-1.8 ± 0.087	-0.863 ± 0.11
AGUAAGCAAUAUUACGAGUC	-2.96 ± 0.23	-1.45 ± 0.17
CCAUAGCAAUAUUACGGGGA	-2.97 ± 0.18	-2.68 ± 0.22
UAGAAGCAAUAUUACGAUAG	-1.57 ± 0.15	-0.522 ± 0.15
UACAAGCAAUAUUACGGGGC	-5.04 ± 0.34	-2.46 ± 0.17
CUUAAGCAAUAUUACGCAAG	-3.07 ± 0.41	-2.58 ± 0.34
GGGCAGCAAUAUUACGUUGG	-3.05 ± 0.16	-1.65 ± 0.15
UCCUAGCAAUAUUACGUAAU	-2.99 ± 0.15	-2.37 ± 0.18
GCAGAGCAAUAUUACGUCAC	-3.67 ± 0.34	-2.48 ± 0.32
CAAGAGCAAUAUUACGGGUU	-3.54 ± 0.18	-3.25 ± 0.23
GACUAGCAAUAUUACGUGCU	-3.61 ± 0.16	-1.9 ± 0.12
AUUGAGCAAUAUUACGAUUA	-2.36 ± 0.23	-2.62 ± 0.36
GCGUAGCAAUAUUACGUUGU	-2.73 ± 0.17	-1.89 ± 0.18
ACCUAGCAAUAUUACGUGUC	-4.29 ± 0.29	-2.24 ± 0.17
UCAAAGCAAUAUUACGAGGU	-3.05 ± 0.13	-2.14 ± 0.14
GAGAAGCAAUAUUACGGAAC	-2.78 ± 0.19	-0.25 ± 0.16
UGGAAGCAAUAUUACGUAAC	-2.91 ± 0.33	-1.71 ± 0.26
